# Results as given in publication PMC8219380, “The discriminatory power of the T cell receptor” (eLife, 2021).
# Tests used:
# [1] = system: ErbB2; experiment: Discrimination power from published data: ErbB2 CARs; settings: n 4, ref Liu 2015
# Text: (§1) The broad method was to obtain a measure of ligand potency from each study. […] If not explicitly provided, we estimated ligand potency as PX , which was defined by the concentration of ligand that produced X response. To do this, we drew a horizontal line at X on a provided dose-response graph and estimated the ligand concentration where the data intercepted the horizontal line. The disadvantage with this method is that ligand potency was estimated based on the single representative graph provided in the study.
# (§2) Each study often contained or cited a study that contained estimates of KD or koff for the specific TCR/pMHC interactions used in the study. We only included studies where monomeric SPR binding data was available to avoid multimeric binding parameters (e.g. when using tetramers). However, when analysing discrimination by other non-TCR receptors, we included binding data from various methods (e.g. SPR, radio labelled ligands) provided they were monomeric measurements. The use of SPR is important for weak interactions, such as TCR/pMHC, but various methods are available for higher-affinity interactions.
# (§3) The plot of potency over KD or k off was fit using linear regression on log-transformed axes. We reported the slope of the fit (i.e. the discrimination power, α), the goodness-of-fit measure ( R^2 ), and the p-value for the null hypothesis that the slope is zero (i.e. α=0 ). […]
# [2] = system: c-Kit; experiment: Discrimination power from published data: c-Kit; settings: n 4, ref Ho 2017
# Text: as §1, §2, §3
# [3] = biological target: NYE 9V peptide on HLA-A*02:01; experiment: SPR; Bmax fitted, 37°C
# [4] = biological target: NYE 5F peptide on HLA-A*02:01; experiment: SPR; Bmax fitted, 37°C
# [5] = biological target: NYE 5Y peptide on HLA-A*02:01; experiment: SPR
# [6] = biological target: NYE 3A peptide on HLA-A*02:01; experiment: SPR
# [7] = biological target: NYE 3Y peptide on HLA-A*02:01; experiment: SPR
# [8] = biological target: NYE 9V peptide on HLA-A*02:01; experiment: SPR
# [9] = biological target: NYE 5F peptide on HLA-A*02:01; experiment: SPR
# [10] = biological target: NYE 4A peptide on HLA-A*02:01; experiment: SPR
# [11] = biological target: NYE 6T peptide on HLA-A*02:01; experiment: SPR
# [12] = biological target: NYE 9V peptide on HLA-A*02:01 (pMHC); experiment: SPR
# [13] = biological target: NYE 9V peptide on HLA-A*02:01; experiment: SPR; Bmax constrained, 37°C
# [14] = biological target: NYE 5F peptide on HLA-A*02:01; experiment: SPR; Bmax constrained, 37°C
# [15] = biological target: NYE 5F peptide on HLA-A*02:01; experiment: SPR; 37°C
# [16] = system: M3 muscarinic receptor; experiment: Discrimination power from published data: M3 receptor; settings: n 7, ref Sykes 2009
# Text: as §1, §2, §3
# [17] = system: gp130; experiment: Discrimination power from published data: IL-6 receptor; settings: ns, ref Martinez-Fabregas 2019
# Text: as §1, §2, §3
# [18] = system: IL-2 receptor subunit β (IL-2Rb); experiment: Discrimination power from published data: IL-2 receptor; settings: n 4, ref Levin 2012
# Text: as §1, §2, §3
molecule,measurement,setting,value
ErB2,Power (discrimination power),"[1]; ID 26, output CD107",1.058
same,Power (discrimination power),"[1]; ID 27, output Proliferation, ns",0.6409
c-Kit: receptor tyrosine kinase activated by SCF,Power (discrimination power),"[2]; ID 15, output pERK",0.834
same,Power (discrimination power),"[2]; ID 16, output pAKT",0.882
soluble 1G4 αβ TCR,Kd,[3],6.8 µM
same,Kd,[4],198 µM
same,Kd,[5]; Bmax constrained (new method),433 µM
same,Kd,[5]; Bmax fitted (standard method),191 µM
same,Kd,[6]; Bmax constrained (new method),6.28 µM
same,Kd,[6]; Bmax fitted (standard method),7.04 µM
same,Kd,[7]; Bmax constrained (new method),47.3 µM
same,Kd,[7]; Bmax fitted (standard method),36.3 µM
same,Kd,[8]; Bmax constrained (new method),4.93 µM
same,Kd,[8]; Bmax fitted (standard method),7.97 µM
same,Kd,[9],756 µM
same,Kd,[10]; Bmax constrained (new method),299 µM
same,Kd,[10]; Bmax fitted (standard method),157 µM
same,Kd,[11]; Bmax constrained (new method),162 µM
same,Kd,[11]; Bmax fitted (standard method),84.6 µM
same,Kd,[12],7 µM
same,Kd,[13],4.6 µM
same,Kd,[14],1590 µM
same,Kd,[15],1310 µM
"M3 muscarinic receptor: M3 muscarinic receptor, set of agonists",Power (discrimination power),"[16]; ID 19, output Calcium, ns",0.7717
same,Power (discrimination power),"[16]; ID 20, output GTPyS Binding",0.5478
"gp130 (and IL6R alpha) (protein, UniProt P40189 23-918; P08887 20-468, looked up) Interleukin-6 receptor … 1: ELLDPCGYISPESPVVQLHSNFTAVCVLKEKCMDYFHVNANYIVWKTNHFTIPKEQYTIINRTASSVTFTDIASLNIQLTCNILTFGQLEQNVYGITIISGLPPEKPKNLSCIVNEGKKMRCEWDGGRETHLETNFTLKSEWATHKFADCKAKRDTPTSCTVDYSTVYFVNIEVWVEAENALGKVTSDHINFDPVYKVKPNPPHNLSVINSEELSSILKLTWTNPSIKSVIILKYNIQYRTKDASTWSQIPPEDTASTRSSFTVQDLKPFTEYVFRIRCMKEDGKGYWSDWSEEASGITYEDRPSKAPSFWYKIDPSHTQGYRTVQLVWKTLPPFEANGKILDYEVTLTRWKSHLQNYTVNATKLTVNLTNDRYLATLTVRNLVGKSDAAVLTIPACDFQATHPVMDLKAFPKDNMLWVEWTTPRESVKKYILEWCVLSDKAPCITDWQQEDGTVHRTYLRGNLAESKCYLITVTPVYADGPGSPESIKAYLKQAPPSKGPTVRTKKVGKNEAVLEWDQLPVDVQNGFIRNYTIFYRTIIGNETAVNVDSSHTEYTLSSLTSDTLYMVRMAAYTDEGGKDGPEFTFTTPKFAQGEIEAIVVPVCLAFLLTTLLGVLFCFNKRDLIKKHIWPNVPDPSKSHIAQWSPHTPPRHNFNSKDQMYSDGNFTDVSVVEIEANDKKPFPEDLKSLDLFKKEKINTEGHSSGIGGSSCMSSSRPSISSSDENESSQNTSSTVQYSTVVHSGYRHQVPSVQVFSRSESTQPLLDSEERPEDLQLVDHVDGGDGILPRQQYFKQNCSQHESSPDISHFERSKQVSSVNEEDFVRLKQQISDHISQSCGSGQMKMFQEVSAADAFGPGTEGQVERFETVGMEAATDEGMPKSYLPQTVRQGGYMPQ Interleukin-6 receptor … 2: LAPRRCPAQEVARGVLTSLPGDSVTLTCPGVEPEDNATVHWVLRKPAAGSHPSRWAGMGRRLLLRSVQLHDSGNYSCYRAGRPAGTVHLLVDVPPEEPQLSCFRKSPLSNVVCEWGPRSTPSLTTKAVLLVRKFQNSPAEDFQEPCQYSQESQKFSCQLAVPEGDSSFYIVSMCVASSVGSKFSKTQTFQGCGILQPDPPANITVTAVARNPRWLSVTWQDPHSWNSSFYRLRFELRYRAERSKTFTTWMVKDLQHHCVIHDAWSGLRHVVQLRAQEEFGQGEWSEWSPEAMGTPWTESRSPPAENEVSTPMQALTTNKDDDNILFRDSANATSLPVQDSSSVPLPTFLVAGGSLAFGTLLCIAIVLRFKKTWKLRALKEGKTSMHPPYSLGQLVPERPRPTPVLVPLISPPVSPSSLGSDNTSSHNRPDARDPRSPYDISNTDYFFPR",Power (discrimination power),"[17]; ID 12, output pSTAT1, n 3",0.5438
same,Power (discrimination power),"[17]; ID 13, output pSTAT3, n 4",0.5194
"IL-2R beta (protein, UniProt P14784 27-551, looked up) Interleukin-2 receptor …: AVNGTSQFTCFYNSRANISCVWSQDGALQDTSCQVHAWPDRRRWNQTCELLPVSQASWACNLILGAPDSQKLTTVDIVTLRVLCREGVRWRVMAIQDFKPFENLRLMAPISLQVVHVETHRCNISWEISQASHYFERHLEFEARTLSPGHTWEEAPLLTLKQKQEWICLETLTPDTQYEFQVRVKPLQGEFTTWSPWSQPLAFRTKPAALGKDTIPWLGHLLVGLSGAFGFIILVYLLINCRNTGPWLKKVLKCNTPDPSKFFSQLSSEHGGDVQKWLSSPFPSSSFSPGGLAPEISPLEVLERDKVTQLLLQQDKVPEPASLSSNHSLTSCFTNQGYFFFHLPDALEIEACQVYFTYDPYSEEDPDEGVAGAPTGSSPQPLQPLSGEDDAYCTFPSRDDLLLFSPSLLGGPSPPSTAPGGSGAGEERMPPSLQERVPRDWDPQPLGPPTPGVPDLVDFQPPPELVLREAGEEVPDAGPREGVSFPWSRPPGQGEFRALNARLPLNTDAYLSLQELQGQDPTHLV",Power (discrimination power),"[18]; ID 1, output CD25 – pSTAT5 (NK cells)",0.546
same,Power (discrimination power),"[18]; ID 2, output CD25 – %pSTAT5 (T cells)",0.743
